Reference: US20070093443

T1: Complement C4 (human)
T1 chain 1: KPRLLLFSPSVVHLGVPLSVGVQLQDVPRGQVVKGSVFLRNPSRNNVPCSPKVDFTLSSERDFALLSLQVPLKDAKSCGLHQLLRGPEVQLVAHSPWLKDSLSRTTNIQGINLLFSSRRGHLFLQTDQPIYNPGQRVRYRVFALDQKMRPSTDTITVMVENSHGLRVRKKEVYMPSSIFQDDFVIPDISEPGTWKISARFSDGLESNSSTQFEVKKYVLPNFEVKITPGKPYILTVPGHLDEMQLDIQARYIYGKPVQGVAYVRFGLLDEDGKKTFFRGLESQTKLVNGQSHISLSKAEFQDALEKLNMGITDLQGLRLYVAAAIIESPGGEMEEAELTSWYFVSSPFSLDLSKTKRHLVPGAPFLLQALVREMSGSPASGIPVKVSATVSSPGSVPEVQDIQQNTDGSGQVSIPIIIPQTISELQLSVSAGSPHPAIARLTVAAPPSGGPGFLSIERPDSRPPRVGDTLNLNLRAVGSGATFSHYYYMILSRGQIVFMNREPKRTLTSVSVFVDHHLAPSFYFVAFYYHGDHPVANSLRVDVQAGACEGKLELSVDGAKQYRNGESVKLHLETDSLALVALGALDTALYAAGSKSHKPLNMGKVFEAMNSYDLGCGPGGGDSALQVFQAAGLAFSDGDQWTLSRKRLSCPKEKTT
T1 chain 2: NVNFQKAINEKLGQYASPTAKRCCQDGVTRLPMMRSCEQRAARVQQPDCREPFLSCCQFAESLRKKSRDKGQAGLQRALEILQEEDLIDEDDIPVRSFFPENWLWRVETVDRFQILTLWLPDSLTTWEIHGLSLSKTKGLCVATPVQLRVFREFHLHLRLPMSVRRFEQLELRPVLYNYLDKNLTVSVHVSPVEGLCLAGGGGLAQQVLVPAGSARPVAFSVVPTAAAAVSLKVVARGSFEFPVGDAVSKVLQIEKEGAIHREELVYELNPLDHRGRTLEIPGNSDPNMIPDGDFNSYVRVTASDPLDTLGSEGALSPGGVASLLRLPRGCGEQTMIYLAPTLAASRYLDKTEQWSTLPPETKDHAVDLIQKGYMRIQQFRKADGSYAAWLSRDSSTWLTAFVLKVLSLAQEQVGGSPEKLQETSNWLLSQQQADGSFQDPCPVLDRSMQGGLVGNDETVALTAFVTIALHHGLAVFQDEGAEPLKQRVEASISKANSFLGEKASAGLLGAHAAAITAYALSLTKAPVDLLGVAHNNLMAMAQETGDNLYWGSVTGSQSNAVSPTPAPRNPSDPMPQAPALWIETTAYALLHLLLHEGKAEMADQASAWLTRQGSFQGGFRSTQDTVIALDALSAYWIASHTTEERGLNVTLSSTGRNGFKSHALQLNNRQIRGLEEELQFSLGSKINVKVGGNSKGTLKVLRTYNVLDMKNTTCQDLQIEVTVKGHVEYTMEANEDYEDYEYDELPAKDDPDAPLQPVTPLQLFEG
T1 chain 3: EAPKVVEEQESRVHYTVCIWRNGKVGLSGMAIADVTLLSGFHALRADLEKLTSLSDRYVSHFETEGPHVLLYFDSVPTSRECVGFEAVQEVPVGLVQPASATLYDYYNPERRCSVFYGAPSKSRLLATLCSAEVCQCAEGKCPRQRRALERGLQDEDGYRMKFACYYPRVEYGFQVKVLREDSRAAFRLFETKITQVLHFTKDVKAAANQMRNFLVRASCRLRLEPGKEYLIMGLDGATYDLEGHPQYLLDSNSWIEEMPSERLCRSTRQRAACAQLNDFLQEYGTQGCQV

T2: rat complement C2 (in plasma of treated rats), Q8CIP8
T2 chain: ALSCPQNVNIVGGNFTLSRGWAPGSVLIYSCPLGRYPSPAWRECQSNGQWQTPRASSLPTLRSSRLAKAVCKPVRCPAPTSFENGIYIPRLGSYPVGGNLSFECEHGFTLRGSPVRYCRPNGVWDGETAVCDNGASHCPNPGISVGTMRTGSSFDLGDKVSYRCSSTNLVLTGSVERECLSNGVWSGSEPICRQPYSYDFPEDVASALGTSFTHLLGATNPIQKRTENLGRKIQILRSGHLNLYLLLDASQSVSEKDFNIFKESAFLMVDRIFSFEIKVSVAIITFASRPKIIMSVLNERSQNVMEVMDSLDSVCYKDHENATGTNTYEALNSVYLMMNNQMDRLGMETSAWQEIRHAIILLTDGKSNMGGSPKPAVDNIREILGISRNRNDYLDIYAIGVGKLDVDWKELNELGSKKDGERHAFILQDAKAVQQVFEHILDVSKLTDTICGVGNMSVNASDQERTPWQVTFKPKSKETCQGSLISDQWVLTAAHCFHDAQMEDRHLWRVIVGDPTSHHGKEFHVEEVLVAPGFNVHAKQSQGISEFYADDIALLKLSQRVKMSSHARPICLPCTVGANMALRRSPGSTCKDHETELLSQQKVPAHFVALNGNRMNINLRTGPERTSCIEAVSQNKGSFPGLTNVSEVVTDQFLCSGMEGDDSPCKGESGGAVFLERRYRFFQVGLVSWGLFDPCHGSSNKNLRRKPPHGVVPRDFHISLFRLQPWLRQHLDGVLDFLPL


Tests used:
Complement C4 (human) = molecular target: T1, Complement C4 (human)
[1] = molecular target: Complement component C9 (human)
[2] = molecular target: Complement component C7 (human)
[3] = molecular target: T2, rat complement C2 (in plasma of treated …)
[4] = molecular target: Complement component C6 (human)
Sequence of Complement component C6 (human) (chain, as listed by the source): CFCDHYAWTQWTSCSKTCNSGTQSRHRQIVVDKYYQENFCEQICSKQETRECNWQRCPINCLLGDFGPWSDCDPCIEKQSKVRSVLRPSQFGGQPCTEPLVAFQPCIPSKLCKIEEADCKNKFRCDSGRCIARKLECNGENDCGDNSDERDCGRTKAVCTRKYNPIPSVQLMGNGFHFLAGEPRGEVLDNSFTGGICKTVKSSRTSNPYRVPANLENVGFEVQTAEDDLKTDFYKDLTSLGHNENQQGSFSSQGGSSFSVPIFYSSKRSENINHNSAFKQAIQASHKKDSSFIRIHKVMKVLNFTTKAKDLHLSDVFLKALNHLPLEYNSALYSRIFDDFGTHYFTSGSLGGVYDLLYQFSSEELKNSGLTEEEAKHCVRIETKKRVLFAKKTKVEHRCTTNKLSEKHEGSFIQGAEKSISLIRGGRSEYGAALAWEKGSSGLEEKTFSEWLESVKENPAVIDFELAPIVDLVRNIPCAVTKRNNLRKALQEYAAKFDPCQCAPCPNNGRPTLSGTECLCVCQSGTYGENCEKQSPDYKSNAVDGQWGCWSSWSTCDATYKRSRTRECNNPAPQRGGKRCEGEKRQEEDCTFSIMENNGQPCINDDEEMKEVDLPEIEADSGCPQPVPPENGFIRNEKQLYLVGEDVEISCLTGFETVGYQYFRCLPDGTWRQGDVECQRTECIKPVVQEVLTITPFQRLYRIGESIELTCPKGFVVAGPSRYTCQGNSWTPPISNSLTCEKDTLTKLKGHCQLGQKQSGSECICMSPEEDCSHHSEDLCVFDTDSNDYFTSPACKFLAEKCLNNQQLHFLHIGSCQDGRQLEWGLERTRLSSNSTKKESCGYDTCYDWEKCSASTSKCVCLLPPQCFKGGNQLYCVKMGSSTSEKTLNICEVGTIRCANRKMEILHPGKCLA

Sequence of Complement component C7 (human) (chain, as listed by the source): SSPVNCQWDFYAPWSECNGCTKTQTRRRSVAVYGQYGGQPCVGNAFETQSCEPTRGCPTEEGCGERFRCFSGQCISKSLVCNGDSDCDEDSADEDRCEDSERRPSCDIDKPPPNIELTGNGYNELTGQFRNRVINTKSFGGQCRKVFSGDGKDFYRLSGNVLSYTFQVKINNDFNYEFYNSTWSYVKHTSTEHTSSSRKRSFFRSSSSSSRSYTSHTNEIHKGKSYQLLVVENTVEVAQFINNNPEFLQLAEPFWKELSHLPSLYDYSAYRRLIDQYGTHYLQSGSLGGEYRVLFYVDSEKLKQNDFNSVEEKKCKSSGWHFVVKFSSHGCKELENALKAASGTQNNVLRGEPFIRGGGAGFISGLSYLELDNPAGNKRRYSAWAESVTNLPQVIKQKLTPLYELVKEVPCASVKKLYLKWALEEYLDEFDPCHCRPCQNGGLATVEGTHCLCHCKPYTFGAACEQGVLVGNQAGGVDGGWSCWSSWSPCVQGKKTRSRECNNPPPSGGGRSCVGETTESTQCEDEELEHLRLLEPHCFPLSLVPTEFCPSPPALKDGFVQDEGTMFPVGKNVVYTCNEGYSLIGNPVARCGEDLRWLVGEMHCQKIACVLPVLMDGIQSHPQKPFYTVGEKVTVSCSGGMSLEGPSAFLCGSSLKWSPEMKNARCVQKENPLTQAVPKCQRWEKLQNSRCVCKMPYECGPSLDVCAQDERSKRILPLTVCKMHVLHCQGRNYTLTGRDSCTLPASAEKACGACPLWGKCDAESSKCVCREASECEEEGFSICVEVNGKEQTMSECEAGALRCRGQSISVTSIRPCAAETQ
Sequence of Complement C5 (human) (chain, as listed by the source, chain 1 of 2): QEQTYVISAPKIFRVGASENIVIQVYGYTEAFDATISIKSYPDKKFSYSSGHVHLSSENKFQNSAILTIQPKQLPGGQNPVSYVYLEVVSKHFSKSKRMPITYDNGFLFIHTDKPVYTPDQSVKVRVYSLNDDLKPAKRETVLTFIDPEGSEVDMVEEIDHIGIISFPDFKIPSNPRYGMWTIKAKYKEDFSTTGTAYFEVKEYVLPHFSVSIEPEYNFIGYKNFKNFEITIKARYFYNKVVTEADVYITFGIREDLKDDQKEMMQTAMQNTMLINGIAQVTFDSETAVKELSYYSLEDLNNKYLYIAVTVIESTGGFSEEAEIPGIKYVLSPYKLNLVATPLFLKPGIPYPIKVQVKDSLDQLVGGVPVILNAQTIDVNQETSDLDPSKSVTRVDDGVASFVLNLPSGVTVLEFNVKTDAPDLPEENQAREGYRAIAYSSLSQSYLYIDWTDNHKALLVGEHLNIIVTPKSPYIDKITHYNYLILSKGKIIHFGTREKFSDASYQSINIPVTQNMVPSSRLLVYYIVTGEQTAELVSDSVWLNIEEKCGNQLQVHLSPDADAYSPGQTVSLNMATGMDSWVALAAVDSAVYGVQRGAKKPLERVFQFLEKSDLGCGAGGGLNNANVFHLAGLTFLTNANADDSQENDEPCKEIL
Sequence of Complement C5 (human) (chain, as listed by the source, chain 2 of 2): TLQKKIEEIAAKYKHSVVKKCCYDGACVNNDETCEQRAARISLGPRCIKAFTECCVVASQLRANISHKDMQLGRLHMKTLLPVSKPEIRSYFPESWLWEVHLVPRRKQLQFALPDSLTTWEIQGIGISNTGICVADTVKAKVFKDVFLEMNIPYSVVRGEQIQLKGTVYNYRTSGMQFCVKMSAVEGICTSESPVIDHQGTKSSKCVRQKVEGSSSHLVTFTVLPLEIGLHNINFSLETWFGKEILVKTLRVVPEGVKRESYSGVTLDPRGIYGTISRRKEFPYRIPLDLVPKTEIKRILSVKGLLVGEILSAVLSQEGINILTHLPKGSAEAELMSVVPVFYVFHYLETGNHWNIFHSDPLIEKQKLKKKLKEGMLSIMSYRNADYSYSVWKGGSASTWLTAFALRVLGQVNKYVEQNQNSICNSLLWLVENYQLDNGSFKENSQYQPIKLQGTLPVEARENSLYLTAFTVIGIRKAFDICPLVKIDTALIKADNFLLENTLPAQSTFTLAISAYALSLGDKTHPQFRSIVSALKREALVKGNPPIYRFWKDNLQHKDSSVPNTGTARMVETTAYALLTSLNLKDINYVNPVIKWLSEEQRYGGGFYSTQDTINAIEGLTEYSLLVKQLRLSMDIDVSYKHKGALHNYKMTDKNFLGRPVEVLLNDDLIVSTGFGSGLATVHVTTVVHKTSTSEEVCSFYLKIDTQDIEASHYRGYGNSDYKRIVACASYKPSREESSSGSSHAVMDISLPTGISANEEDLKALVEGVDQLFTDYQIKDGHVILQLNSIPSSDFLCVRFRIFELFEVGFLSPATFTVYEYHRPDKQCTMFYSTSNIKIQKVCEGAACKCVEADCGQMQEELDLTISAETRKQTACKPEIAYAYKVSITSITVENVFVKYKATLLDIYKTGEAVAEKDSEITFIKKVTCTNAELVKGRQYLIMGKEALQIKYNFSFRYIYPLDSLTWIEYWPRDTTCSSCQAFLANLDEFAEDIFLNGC
Sequence of Complement component C9 (human) (chain, as listed by the source): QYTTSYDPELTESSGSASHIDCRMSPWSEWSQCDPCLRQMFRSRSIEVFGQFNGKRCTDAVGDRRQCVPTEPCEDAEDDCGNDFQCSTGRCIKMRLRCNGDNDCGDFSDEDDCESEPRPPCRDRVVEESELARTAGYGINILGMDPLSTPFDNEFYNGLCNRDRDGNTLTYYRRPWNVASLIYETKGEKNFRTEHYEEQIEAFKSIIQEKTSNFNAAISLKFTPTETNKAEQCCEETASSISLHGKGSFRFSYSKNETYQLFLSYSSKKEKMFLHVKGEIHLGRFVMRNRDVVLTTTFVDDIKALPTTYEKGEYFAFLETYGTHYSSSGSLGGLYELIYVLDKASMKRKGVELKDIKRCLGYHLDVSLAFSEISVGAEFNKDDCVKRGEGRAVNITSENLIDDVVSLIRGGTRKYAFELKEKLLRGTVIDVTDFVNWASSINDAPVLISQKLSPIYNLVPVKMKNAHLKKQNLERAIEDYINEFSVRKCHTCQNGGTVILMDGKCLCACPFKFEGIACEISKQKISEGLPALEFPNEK

Protein	hemolysis (OD415) by protease-preincubated purified complement protein added back to the corresponding depleted sera (Complement C4 (human))	hemolysis (OD415) by protease-preincubated purified complement protein added back to the corresponding depleted sera [1]	hemolysis (OD415) by protease-preincubated purified complement protein added back to the corresponding depleted sera [2]	cleavage in 90% human plasma by Western blot (Complement C3 (human))	hemolysis (OD415) by protease-preincubated purified complement protein added back to the corresponding depleted sera (Complement C3 (human))	C2 Western blot of plasma from rats dosed IV with the protease [3]	hemolysis (OD415) by protease-preincubated purified complement protein added back to the corresponding depleted sera [4]	hemolysis (OD415) by protease-preincubated purified complement protein added back to the corresponding depleted sera (Complement C5 (human))	hemolysis (OD415) by protease-preincubated purified complement protein added back to the corresponding depleted sera (Complement C1q (human))
modified MT-SP1 CB252 (Y146E/K224N) protease domain (protein) VVGGTDADEGEWPWQVSLHALGQGHICGASLISPNWLVSAAHCYIDDRGFRYSDPTQWTAFLGLHDQSQRSAPGVQERRLKRIISHPFFNDFTFDYDIALLELEKPAEYSSMVRPICLPDASHVFPAGKAIWVTGWGHTQEGGTGALILQKGEIRVINQTTCENLLPQQITPRMMCVGFLSGGVDSCQGDSGGPLSSVEADGRIFQAGVVSWGDGCAQRNNPGVYTRLPLFRDWIKENTGV	showed no decreased hemolysis as compared to normal sera or the no protease control	showed no decreased hemolysis as compared to normal sera or the no protease control	showed no decreased hemolysis as compared to normal sera or the no protease control	none of the tested proteases cleaved C3 in human plasma as compared to the no protease control even at the highest concentration of protease (2000 nM)	showed no decreased hemolysis as compared to normal sera or the no protease control	CB252 showed a greater cleavage of C2 as there was little detectable C2 present in the plasma samples as assessed by Western Blot even after only 5 minutes following injection, with no detectable C2 present at 60 or 120 minutes after injection	showed no decreased hemolysis as compared to normal sera or the no protease control	showed no decreased hemolysis as compared to normal sera or the no protease control	showed no decreased hemolysis as compared to normal sera or the no protease control
modified MT-SP1 CB377 (Y146E/Q175D/K224N) protease domain (protein) VVGGTDADEGEWPWQVSLHALGQGHICGASLISPNWLVSAAHCYIDDRGFRYSDPTQWTAFLGLHDQSQRSAPGVQERRLKRIISHPFFNDFTFDYDIALLELEKPAEYSSMVRPICLPDASHVFPAGKAIWVTGWGHTQEGGTGALILQKGEIRVINQTTCENLLPQDITPRMMCVGFLSGGVDSCQGDSGGPLSSVEADGRIFQAGVVSWGDGCAQRNNPGVYTRLPLFRDWIKENTGV	showed no decreased hemolysis as compared to normal sera or the no protease control	showed no decreased hemolysis as compared to normal sera or the no protease control	showed no decreased hemolysis as compared to normal sera or the no protease control	none of the tested proteases cleaved C3 in human plasma as compared to the no protease control even at the highest concentration of protease (2000 nM)	showed no decreased hemolysis as compared to normal sera or the no protease control	CB377 also showed diminished C2 levels as compared to vehicle control at early time points, however, by 60 minutes and 120 minutes the levels of C2 were comparable to those from vehicle control samples	showed no decreased hemolysis as compared to normal sera or the no protease control	showed no decreased hemolysis as compared to normal sera or the no protease control	showed no decreased hemolysis as compared to normal sera or the no protease control
